Assay results reported in patent publication US20200223889A1 (Novo Nordisk, published 2020).
Positions of bridges follow the written chain, without caps; N, C: chain ends. Non-standard residues stand in square brackets, D forms with d. Pro(trans-4-guanidino) = N=C(N)N[C@H]1CN[C@H](C(=O)O)C1; Pro(cis-4-guanidino) = NC(N)=N[C@@H]1CN[C@H](C(=O)O)C1; Lys(Me2) = CN(C)CCCC[C@H](N)C(=O)O; Hyp = O=C(O)[C@@H]1C[C@@H](O)CN1; Orn = NCCC[C@H](N)C(=O)O; Thz = O=C(O)[C@@H]1CSCN1; Dab = NCC[C@H](N)C(=O)O

Tests used:
[1] = molecular target: T1, human melanocortin 4 receptor (human, UniProt P32245 1-332); assay: cell-based or functional assay
T1 sequence (P32245 whole entry): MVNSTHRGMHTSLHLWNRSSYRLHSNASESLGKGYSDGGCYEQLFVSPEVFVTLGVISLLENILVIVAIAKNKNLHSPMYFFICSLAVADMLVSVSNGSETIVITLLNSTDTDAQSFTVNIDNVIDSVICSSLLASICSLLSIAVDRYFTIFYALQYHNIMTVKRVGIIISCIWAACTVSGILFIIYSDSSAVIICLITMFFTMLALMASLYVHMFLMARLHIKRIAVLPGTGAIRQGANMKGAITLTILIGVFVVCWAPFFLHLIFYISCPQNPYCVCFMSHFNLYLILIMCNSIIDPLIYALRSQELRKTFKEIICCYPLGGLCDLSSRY

[2] = molecular target: human melanocortin 1 receptor (human, UniProt Q01726 1-317); assay: cell-based or functional assay
Chain of human melanocortin 1 receptor (Q01726 whole entry): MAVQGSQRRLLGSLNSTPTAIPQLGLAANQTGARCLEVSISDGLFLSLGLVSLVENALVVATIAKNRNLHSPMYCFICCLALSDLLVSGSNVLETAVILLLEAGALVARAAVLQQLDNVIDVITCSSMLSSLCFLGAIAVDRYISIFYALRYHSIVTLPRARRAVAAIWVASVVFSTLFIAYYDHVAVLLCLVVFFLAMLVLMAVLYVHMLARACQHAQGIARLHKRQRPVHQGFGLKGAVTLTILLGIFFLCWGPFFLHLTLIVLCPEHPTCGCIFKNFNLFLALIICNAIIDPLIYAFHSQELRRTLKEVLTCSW

[3] = molecular target: T1, human melanocortin 4 receptor; assay: competition with 125-NDP-α-MSH, BHK human MC4R membranes
How it was run: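 Competition binding used membranes from BHK cells stably expressing human MC4R with ¹²⁵I-NDP-α-MSH (apx. […] final), compound at 1 μM–0.001 nM. Incubation was 2 h at 25 °C in HEPES pH 7.0 buffer with CaCl₂, MgSO₄, EGTA, Tween 20 and 0.1% HSA or ovalbumin. Filter-bound radioactivity was fitted by non-linear regression.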

| Binder | MC4R cAMP EC50 [1] | MC1R cAMP EC50 [2] | Ki [3] |
| --- | --- | --- | --- |
| XAHFRWXAHFRW (HCys 1, 7; D-Phe 4, 10; disulphide HCys1-HCys7; head-to-tail amide HCys1-Trp12, also called c[c[HCys-Ala-His-D-Phe-Arg-Trp-HCys]-Ala-His-D-Phe-Arg-Trp]) [Chem. 3] | 0.26 nM | 7.29 nM | 0.42 nM |
| cyclo(C[Hyp][dF]RWC[Hyp][dF]RW) (disulfide 1-6; SMILES N=C(N)NCCC[C@@H]1NC(=O)[C@@H](Cc2ccccc2)NC(=O)[C@@H]2C[C@@H](O)CN2C(=O)[C@@H]2CSSC[C@H](NC(=O)[C@H](Cc3c[nH]c4ccccc34)NC1=O)C(=O)N1C[C@H](O)C[C@H]1C(=O)N[C@H](Cc1ccccc1)C(=O)N[C@@H](CCCNC(=N)N)C(=O)N[C@@H](Cc1c[nH]c3ccccc13)C(=O)N2, also called c[c[Cys-Hyp-D-Phe-Arg-Trp-Cys]-Hyp-D-Phe-Arg-Trp]) [Chem. 27] | 0.24 nM | 50.9 nM | 1.01 nM |
| cyclo(C[Hyp][dF]RWC[Hyp][dF]RW) (bridge 1-6 via methylene bridge (S-CH2-S), also called c[c[Cys-Hyp-D-Phe-Arg-Trp-Cys]-Hyp-D-Phe-Arg-Trp]; Note: methylene bridge) [Chem. 26] | 0.18 nM | 17.2 nM | 0.44 nM |
| cyclo(C[Thz]H[dF]HWCAEDAW) (disulfide 1-7; SMILES C[C@@H]1NC(=O)[C@H](CC(=O)O)NC(=O)[C@H](CCC(=O)O)NC(=O)[C@H](C)NC(=O)[C@@H]2CSSC[C@H](NC(=O)[C@H](Cc3c[nH]c4ccccc34)NC1=O)C(=O)N1CSC[C@H]1C(=O)N[C@@H](Cc1c[nH]cn1)C(=O)N[C@H](Cc1ccccc1)C(=O)N[C@@H](Cc1c[nH]cn1)C(=O)N[C@@H](Cc1c[nH]c3ccccc13)C(=O)N2, also called c[c[Cys-THAZ-His-D-Phe-His-Trp-Cys]-Ala-Glu-Asp-Ala-Trp]) [Chem. 108] | 2.52 nM | > 100 nM | 23.3 nM |
| cyclo(CAH[dF][Lys(Me2)]WCAH[dF][Lys(Me2)]W) (disulfide 1-7; SMILES C[C@@H]1NC(=O)[C@@H]2CSSC[C@H](NC(=O)[C@H](Cc3c[nH]c4ccccc34)NC(=O)[C@H](CCCCN(C)C)NC(=O)[C@@H](Cc3ccccc3)NC(=O)[C@H](Cc3c[nH]cn3)NC1=O)C(=O)N[C@@H](C)C(=O)N[C@@H](Cc1c[nH]cn1)C(=O)N[C@H](Cc1ccccc1)C(=O)N[C@@H](CCCCN(C)C)C(=O)N[C@@H](Cc1c[nH]c3ccccc13)C(=O)N2, also called c[c[Cys-Ala-His-D-Phe-Lys(Me)2-Trp-Cys]-Ala-His-D-Phe-Lys(Me)2-Trp]) [Chem. 18] | 0.12 nM | 4.22 nM | 0.38 nM |
| cyclo(CPH[dF]RWCPH[dF]RW) (disulfide 1-7; SMILES N=C(N)NCCC[C@@H]1NC(=O)[C@@H](Cc2ccccc2)NC(=O)[C@H](Cc2c[nH]cn2)NC(=O)[C@@H]2CCCN2C(=O)[C@@H]2CSSC[C@H](NC(=O)[C@H](Cc3c[nH]c4ccccc34)NC1=O)C(=O)N1CCC[C@H]1C(=O)N[C@@H](Cc1c[nH]cn1)C(=O)N[C@H](Cc1ccccc1)C(=O)N[C@@H](CCCNC(=N)N)C(=O)N[C@@H](Cc1c[nH]c3ccccc13)C(=O)N2, also called c[c[Cys-Pro-His-D-Phe-Arg-Trp-Cys]-Pro-His-D-Phe-Arg-Trp]) [Chem. 30] | 0.03 nM | 0.61 nM | 0.09 nM |
| CXHFRWCXHFRW (βAla 2, 8; D-Phe 4, 10; disulphide Cys1-Cys7; head-to-tail amide Cys1-Trp12, also called c[c[Cys-βAla-His-D-Phe-Arg-Trp-Cys]-βAla-His-D-Phe-Arg-Trp]) [Chem. 25] | 0.02 nM | 0.34 nM | 0.04 nM |
| cyclo(CAH[dF]HWCAH[dF]HW) (disulfide 1-7; SMILES C[C@@H]1NC(=O)[C@@H]2CSSC[C@H](NC(=O)[C@H](Cc3c[nH]c4ccccc34)NC(=O)[C@H](Cc3c[nH]cn3)NC(=O)[C@@H](Cc3ccccc3)NC(=O)[C@H](Cc3c[nH]cn3)NC1=O)C(=O)N[C@@H](C)C(=O)N[C@@H](Cc1c[nH]cn1)C(=O)N[C@H](Cc1ccccc1)C(=O)N[C@@H](Cc1c[nH]cn1)C(=O)N[C@@H](Cc1c[nH]c3ccccc13)C(=O)N2, also called c[c[Cys-Ala-His-D-Phe-His-Trp-Cys]-Ala-His-D-Phe-His-Trp]) [Chem. 24] | 0.49 nM | 178 nM | 0.55 nM |
| cyclo(CA[Hyp][dF]RWCA[Hyp][dF]RW) (disulfide 1-7; SMILES C[C@@H]1NC(=O)[C@@H]2CSSC[C@H](NC(=O)[C@H](Cc3c[nH]c4ccccc34)NC(=O)[C@H](CCCNC(=N)N)NC(=O)[C@@H](Cc3ccccc3)NC(=O)[C@@H]3C[C@@H](O)CN3C1=O)C(=O)N[C@@H](C)C(=O)N1C[C@H](O)C[C@H]1C(=O)N[C@H](Cc1ccccc1)C(=O)N[C@@H](CCCNC(=N)N)C(=O)N[C@@H](Cc1c[nH]c3ccccc13)C(=O)N2, also called c[c[Cys-Ala-Hyp-D-Phe-Arg-Trp-Cys]-Ala-Hyp-D-Phe-Arg-Trp]) [Chem. 14] | 3.55 nM | > 10 nM | 30.2 nM |
| cyclo(CAH[dF]KWCAH[dF]KW) (disulfide 1-7; SMILES C[C@@H]1NC(=O)[C@@H]2CSSC[C@H](NC(=O)[C@H](Cc3c[nH]c4ccccc34)NC(=O)[C@H](CCCCN)NC(=O)[C@@H](Cc3ccccc3)NC(=O)[C@H](Cc3c[nH]cn3)NC1=O)C(=O)N[C@@H](C)C(=O)N[C@@H](Cc1c[nH]cn1)C(=O)N[C@H](Cc1ccccc1)C(=O)N[C@@H](CCCCN)C(=O)N[C@@H](Cc1c[nH]c3ccccc13)C(=O)N2, also called c[c[Cys-Ala-His-D-Phe-Lys-Trp-Cys]-Ala-His-D-Phe-Lys-Trp]) [Chem. 15] | 0.09 nM | 5.43 nM | 0.12 nM |
| cyclo(CGH[dF]RWCGH[dF]RW) (disulfide 1-7; SMILES N=C(N)NCCC[C@@H]1NC(=O)[C@@H](Cc2ccccc2)NC(=O)[C@H](Cc2c[nH]cn2)NC(=O)CNC(=O)[C@@H]2CSSC[C@H](NC(=O)[C@H](Cc3c[nH]c4ccccc34)NC1=O)C(=O)NCC(=O)N[C@@H](Cc1c[nH]cn1)C(=O)N[C@H](Cc1ccccc1)C(=O)N[C@@H](CCCNC(=N)N)C(=O)N[C@@H](Cc1c[nH]c3ccccc13)C(=O)N2, also called c[c[Cys-Gly-His-D-Phe-Arg-Trp-Cys]-Gly-His-D-Phe-Arg-Trp]) [Chem. 2] | 0.01 nM | 1.54 nM | 0.07 nM |
| CAHFXWCAHFXW (D-Phe 4, 10; HArg 5, 11; disulphide Cys1-Cys7; head-to-tail amide Cys1-Trp12, also called c[c[Cys-Ala-His-D-Phe-HArg-Trp-Cys]-Ala-His-D-Phe-HArg-Trp]) [Chem. 22] | 0.02 nM | 0.22 nM | 0.06 nM |
| cyclo(CAH[dF][Orn]WCAH[dF][Orn]W) (disulfide 1-7; SMILES C[C@@H]1NC(=O)[C@@H]2CSSC[C@H](NC(=O)[C@H](Cc3c[nH]c4ccccc34)NC(=O)[C@H](CCCN)NC(=O)[C@@H](Cc3ccccc3)NC(=O)[C@H](Cc3c[nH]cn3)NC1=O)C(=O)N[C@@H](C)C(=O)N[C@@H](Cc1c[nH]cn1)C(=O)N[C@H](Cc1ccccc1)C(=O)N[C@@H](CCCN)C(=O)N[C@@H](Cc1c[nH]c3ccccc13)C(=O)N2, also called c[c[Cys-Ala-His-D-Phe-Orn-Trp-Cys]-Ala-His-D-Phe-Orn-Trp]) [Chem. 16] | 0.21 nM | > 1 nM | 0.34 nM |
| cyclo(CAH[dF][Pro(trans-4-guanidino)]WCAH[dF][Pro(trans-4-guanidino)]W) (disulfide 1-7; SMILES C[C@@H]1NC(=O)[C@@H]2CSSC[C@H](NC(=O)[C@H](Cc3c[nH]c4ccccc34)NC(=O)[C@@H]3C[C@@H](NC(=N)N)CN3C(=O)[C@@H](Cc3ccccc3)NC(=O)[C@H](Cc3c[nH]cn3)NC1=O)C(=O)N[C@@H](C)C(=O)N[C@@H](Cc1c[nH]cn1)C(=O)N[C@H](Cc1ccccc1)C(=O)N1C[C@H](NC(=N)N)C[C@H]1C(=O)N[C@@H](Cc1c[nH]c3ccccc13)C(=O)N2, also called c[c[Cys-Ala-His-D-Phe-4trans-GuaPro-Trp-Cys]-Ala-His-D-Phe-4trans-GuaPro-Trp]) [Chem. 28] | 518 nM | > 100 nM | 892 nM |
| cyclo(CAH[dF][Dab]WCAH[dF][Dab]W) (disulfide 1-7; SMILES C[C@@H]1NC(=O)[C@@H]2CSSC[C@H](NC(=O)[C@H](Cc3c[nH]c4ccccc34)NC(=O)[C@H](CCN)NC(=O)[C@@H](Cc3ccccc3)NC(=O)[C@H](Cc3c[nH]cn3)NC1=O)C(=O)N[C@@H](C)C(=O)N[C@@H](Cc1c[nH]cn1)C(=O)N[C@H](Cc1ccccc1)C(=O)N[C@@H](CCN)C(=O)N[C@@H](Cc1c[nH]c3ccccc13)C(=O)N2, also called c[c[Cys-Ala-His-D-Phe-Dab-Trp-Cys]-Ala-His-D-Phe-Dab-Trp]) [Chem. 17] | 0.36 nM | 104 nM | 0.83 nM |
| cyclo(CAH[dF][Pro(cis-4-guanidino)]WCAH[dF][Pro(cis-4-guanidino)]W) (disulfide 1-7; SMILES C[C@@H]1NC(=O)[C@@H]2CSSC[C@H](NC(=O)[C@H](Cc3c[nH]c4ccccc34)NC(=O)[C@@H]3C[C@H](N=C(N)N)CN3C(=O)[C@@H](Cc3ccccc3)NC(=O)[C@H](Cc3c[nH]cn3)NC1=O)C(=O)N[C@@H](C)C(=O)N[C@@H](Cc1c[nH]cn1)C(=O)N[C@H](Cc1ccccc1)C(=O)N1C[C@@H](N=C(N)N)C[C@H]1C(=O)N[C@@H](Cc1c[nH]c3ccccc13)C(=O)N2, also called c[c[Cys-Ala-His-D-Phe-4cis-GuaPro-Trp-Cys]-Ala-His-D-Phe-4cis-GuaPro-Trp]) [Chem. 29] | 1020 nM | > 100 nM | 1210 nM |
| cyclo(CA[Hyp][dF]RWCA[Hyp][dF]RW) (bridge 1-7 via methylene bridge (S-CH2-S), also called c[c[Cys-Ala-Hyp-D-Phe-Arg-Trp-Cys]-Ala-Hyp-D-Phe-Arg-Trp]; Note: methylene bridge) [Chem. 23] | 3.26 nM | > 10 nM | 13.6 nM |
| CXHFRWCXHFRW (ACBC 2, 8; D-Phe 4, 10; disulphide Cys1-Cys7; head-to-tail amide Cys1-Trp12, also called c[c[Cys-ACBC-His-D-Phe-Arg-Trp-Cys]-ACBC-His-D-Phe-Arg-Trp]) [Chem. 20] | 0.04 nM | 4.97 nM | 0.15 nM |
| CAHFXWCAHFXW (D-Phe 4, 10; Cit 5, 11; disulphide Cys1-Cys7; head-to-tail amide Cys1-Trp12, also called c[c[Cys-Ala-His-D-Phe-Cit-Trp-Cys]-Ala-His-D-Phe-Cit-Trp]) [Chem. 19] | 0.13 nM | > 1 nM | 1.49 nM |
